The series “cross-linking” deals with the molecule itself. As to the kind of experiment: cross-linking.
The target of a further series is T1, FLAG-tagged Npl4 (S. cerevisiae, UniProt P33755 1-580).
T1 sequence: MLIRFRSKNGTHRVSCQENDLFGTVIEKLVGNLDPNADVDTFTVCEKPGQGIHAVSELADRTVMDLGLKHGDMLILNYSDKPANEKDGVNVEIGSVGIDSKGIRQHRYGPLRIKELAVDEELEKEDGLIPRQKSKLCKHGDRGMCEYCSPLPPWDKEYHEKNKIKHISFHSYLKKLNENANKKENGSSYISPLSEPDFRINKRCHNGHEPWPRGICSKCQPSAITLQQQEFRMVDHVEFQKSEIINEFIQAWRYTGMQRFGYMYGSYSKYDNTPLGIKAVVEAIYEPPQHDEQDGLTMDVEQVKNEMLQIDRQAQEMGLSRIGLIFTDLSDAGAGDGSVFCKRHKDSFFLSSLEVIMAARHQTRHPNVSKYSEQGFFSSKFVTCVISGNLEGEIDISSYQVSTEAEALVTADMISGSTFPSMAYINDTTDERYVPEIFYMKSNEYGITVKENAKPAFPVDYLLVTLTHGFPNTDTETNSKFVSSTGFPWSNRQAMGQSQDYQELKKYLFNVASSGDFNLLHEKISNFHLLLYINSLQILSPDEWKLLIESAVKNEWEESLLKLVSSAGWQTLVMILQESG
As to the kind of experiment: pull-down.

The results in this text go back to publication PMC8818041 (Molecular cell, 2021).

Broadly, the stoichiometry N is a count of units in the complex or per binding partner.

B1: Cdc48^2Cys (Cdc48 containing S286C and R333C) (enzyme, S. cerevisiae)
chain: MGEEHKPLLDASGVDPREEDKTATAILRRKKKDNMLLVDDAINDDNSVIAINSNTMDKLELFRGDTVLVKGKKRKDTVLIVLIDDELEDGACRINRVVRNNLRIRLGDLVTIHPCPDIKYATRISVLPIADTIEGITGNLFDVFLKPYFVEAYRPVRKGDHFVVRGGMRQVEFKVVDVEPEEYAVVAQDTIIHWEGEPINREDEENNMNEVGYDDIGGCRKQMAQIREMVELPLRHPQLFKAIGIKPPRGVLMYGPPGTGKTLMARAVANETGAFFFLINGPEVMCKMAGESESNLRKAFEEAEKNAPAIIFIDEIDSIAPKRDKTNGEVERCVVSQLLTLMDGMKARSNVVVIAATNRPNSIDPALRRFGRFDREVDIGIPDATGRLEVLRIHTKNMKLADDVDLEALAAETHGYVGADIASLCSEAAMQQIREKMDLIDLDEDEIDAEVLDSLGVTMDNFRFALGNSNPSALRETVVESVNVTWDDVGGLDEIKEELKETVEYPVLHPDQYTKFGLSPSKGVLFYGPPGTGKTLLAKAVATEVSANFISVKGPELLSMWYGESESNIRDIFDKARAAAPTVVFLDELDSIAKARGGSLGDAGGASDRVVNQLLTEMDGMNAKKNVFVIGATNRPDQIDPAILRPGRLDQLIYVPLPDENARLSILNAQLRKTPLEPGLELTAIAKATQGFSGADLLYIVQRAAKYAIKDSIEAHRQHEAEKEVKVEGEDVEMTDEGAKAEQEPEVDPVPYITKEHFAEAMKTAKRSVSDAELRRYEAYSQQMKASRGQFSNFNFNDAPLGTTATDNANSNNSAPSGAGAAFGSNAEEDDDLYS
modifications: disulfide bridges between neighbouring protomers after oxidation
As for B1, the “stoichiometry N” value in “cross-linking” was 6.

B2: Ufd1 (natural protein, S. cerevisiae, UniProt P53044 1-361, looked up)
chain: MFSGFSSFGGGNGFVNMPQTFEEFFRCYPIAMMNDRIRKDDANFGGKIFLPPSALSKLSMLNIRYPMLFKLTANETGRVTHGGVLEFIAEEGRVYLPQWMMETLGIQPGSLLQISSTDVPLGQFVKLEPQSVDFLDISDPKAVLENVLRNFSTLTVDDVIEISYNGKTFKIKILEVKPESSSKSICVIETDLVTDFAPPVGYVEPDYKALKAQQDKEKKNSFGKGQVLDPSVLGQGSMSTRIDYAGIANSSRNKLSKFVGQGQNISGKAPKAEPKQDIKDMKITFDGEPAKLDLPEGQLFFGFPMVLPKEDEESAAGSKSSEQNFQGQGISLRKSNKRKTKSDHDSSKSKAPKSPEVIEID
For the molecule B2, in the series with FLAG-tagged Npl4, the binding result was “binds”.
